In IntAct's records for PubMed 11056176:

B1: snRNA-activating protein complex subunit 4 (Homo sapiens), Q5SXM2 (parent)
chain: MDVDAEREKITQEIKELERILDPGSSGSHVEISESSLESDSEADSLPSEDLDPADPPISEEERWGEASNDEDDPKDKTLPEDPETCLQLNMVYQEVIQEKLAEANLLLAQNREQQEELMRDLAGSKGTKVKDGKSLPPSTYMGHFMKPYFKDKVTGVGPPANEDTREKAAQGIKAFEELLVTKWKNWEKALLRKSVVSDRLQRLLQPKLLKLEYLHQKQSKVSSELERQALEKQGREAEKEIQDINQLPEEALLGNRLDSHDWEKISNINFEGSRSAEEIRKFWQNSEHPSINKQEWSREEEERLQAIAAAHGHLEWQKIAEELGTSRSAFQCLQKFQQHNKALKRKEWTEEEDRMLTQLVQEMRVGSHIPYRRIVYYMEGRDSMQLIYRWTKSLDPGLKKGYWAPEEDAKLLQAVAKYGEQDWFKIREEVPGRSDAQCRDRYLRRLHFSLKKGRWNLKEEEQLIELIEKYGVGHWAKIASELPHRSGSQCLSKWKIMMGKKQGLRRRRRRARHSVRWSSTSSSGSSSGSSGGSSSSSSSSSEEDEPEQAQAGEGDRALLSPQYMVPDMDLWVPARQSTSQPWRGGAGAWLGGPAASLSPPKGSSASQGGSKEASTTAAAPGEETSPVQVPARAHGPVPRSAQASHSADTRPAGAEKQALEGGRRLLTVPVETVLRVLRANTAARSCTQKEQLRQPPLPTSSPGVSSGDSVARSHVQWLRHRATQSGQRRWRHALHRRLLNRRLLLAVTPWVGDVVVPCTQASQRPAVVQTQADGLREQLQQARLASTPVFTLFTQLFHIDTAGCLEVVRERKALPPRLPQAGARDPPVHLLQASSSAQSTPGHLFPNVPAQEASKSASHKGSRRLASSRVERTLPQASLLASTGPRPKPKTVSELLQEKRLQEARAREATRGPVVLPSQLLVSSSVILQPPLPHTPHGRPAPGPTVLNVPLSGPGAPAAAKPGTSGSWQEAGTSAKDKRLSTMQALPLAPVFSEAEGTAPAASQAPALGPGQISVSCPESGLGQSQAPAASRKQGLPEAPPFLPAAPSPTPLPVQPLSLTHIGGPHVATSVPLPVTWVLTAQGLLPVPVPAVVSLPRPAGTPGPAGLLATLLPPLTETRAAQGPRAPALSSSWQPPANMNREPEPSCRTDTPAPPTHALSQSPAEADGSVAFVPGEAQVAREIPEPRTSSHADPPEAEPPWSGRLPAFGGVIPATEPRGTPGSPSGTQEPRGPLGLEKLPLRQPGPEKGALDLEKPPLPQPGPEKGALDLGLLSQEGEAATQQWLGGQRGVRVPLLGSRLPYQPPALCSLRALSGLLLHKKALEHKATSLVVGGEAERPAGALQASLGLVRGQLQDNPAYLLLRARFLAAFTLPALLATLAPQGVRTTLSVPSRVGSESEDEDLLSELELADRDGQPGCTTATCPIQGAPDSGKCSASSCLDTSNDPDDLDVLRTRHARHTRKRRRLV
partner: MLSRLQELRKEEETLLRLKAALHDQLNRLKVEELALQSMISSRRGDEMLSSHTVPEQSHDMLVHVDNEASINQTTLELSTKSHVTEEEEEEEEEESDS
B2: snRNA-activating protein complex subunit 4 (Homo sapiens), Q5SXM2 (parent)
chain: B1 chain
partner: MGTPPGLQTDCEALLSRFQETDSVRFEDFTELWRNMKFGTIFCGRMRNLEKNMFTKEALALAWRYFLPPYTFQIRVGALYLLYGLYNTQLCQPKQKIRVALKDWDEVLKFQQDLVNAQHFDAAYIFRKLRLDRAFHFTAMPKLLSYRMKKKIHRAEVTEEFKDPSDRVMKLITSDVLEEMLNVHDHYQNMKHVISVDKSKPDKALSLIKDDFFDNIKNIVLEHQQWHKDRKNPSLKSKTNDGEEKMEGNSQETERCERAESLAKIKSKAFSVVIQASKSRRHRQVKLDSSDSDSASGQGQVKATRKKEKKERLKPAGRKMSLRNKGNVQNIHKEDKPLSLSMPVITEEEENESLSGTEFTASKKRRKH
B3: snRNA-activating protein complex subunit 5 (Homo sapiens), O75971 (parent)
chain: B1 partner
partner: B1 chain

Variants of: B1
Details: with snpc5_human SNAPC5, O75971

| effect of a mutation on the interaction | Variant |
| --- | --- |
| disrupting interaction strength | Q115A;L122A |
| disrupting interaction strength | L87A;Q94A |
| decreasing interaction strength | L89A;V96A |
| disrupting interaction strength | L101A;L108A |
| disrupting interaction strength | Q115L |
| disrupting interaction strength | Q94L |
| disrupting interaction strength | Q94A |

Variants of: B2
Details: with snpc1_human SNAPC1, Q16533

| effect of a mutation on the interaction | Variant |
| --- | --- |
| decreasing interaction strength | L1369A |
| with no effect | L1297A;Q1304A |
| disrupting interaction strength | L1355A;L1362A |
| disrupting interaction strength | L1314A |
| decreasing interaction strength | L1311A |
| decreasing interaction strength | L1301A;L1308A |
| disrupting interaction strength | L1364A |

Variants of: B3
Details: with snpc4_human SNAPC4, Q5SXM2

| effect of a mutation on the interaction | Variant |
| --- | --- |
| disrupting interaction strength | L29A;L36A |
| decreasing interaction strength | L18A |
| disrupting interaction strength | L15A;L22A |
| decreasing interaction strength | L8A |
